Laboratory results as given in article doi:10.1101/301655 (bioRxiv, 2018).

T1: Lon protease (Caulobacter crescentus) (Caulobacter crescentus, UniProt P0CAW0 1-799)
T1 sequence (looked up): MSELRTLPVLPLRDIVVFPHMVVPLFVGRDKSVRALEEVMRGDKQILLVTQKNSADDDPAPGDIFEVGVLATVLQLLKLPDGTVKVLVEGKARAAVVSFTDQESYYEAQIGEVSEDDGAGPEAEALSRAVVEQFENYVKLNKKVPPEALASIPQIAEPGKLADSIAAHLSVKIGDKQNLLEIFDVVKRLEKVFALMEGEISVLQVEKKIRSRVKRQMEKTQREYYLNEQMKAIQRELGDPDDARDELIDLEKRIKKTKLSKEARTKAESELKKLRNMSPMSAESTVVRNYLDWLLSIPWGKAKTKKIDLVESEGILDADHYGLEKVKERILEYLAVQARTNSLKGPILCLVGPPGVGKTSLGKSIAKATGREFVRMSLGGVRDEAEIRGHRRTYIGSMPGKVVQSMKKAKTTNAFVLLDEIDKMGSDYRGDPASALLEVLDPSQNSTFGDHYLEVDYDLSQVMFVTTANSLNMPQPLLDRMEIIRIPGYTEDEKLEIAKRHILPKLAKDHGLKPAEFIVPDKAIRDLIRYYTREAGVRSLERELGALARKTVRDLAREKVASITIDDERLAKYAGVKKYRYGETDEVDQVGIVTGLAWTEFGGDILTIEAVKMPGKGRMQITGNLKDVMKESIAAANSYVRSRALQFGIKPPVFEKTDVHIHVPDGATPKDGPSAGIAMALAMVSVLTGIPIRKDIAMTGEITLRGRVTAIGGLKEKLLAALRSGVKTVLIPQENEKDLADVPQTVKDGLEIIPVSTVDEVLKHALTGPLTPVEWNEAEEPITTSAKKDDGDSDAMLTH

B1: DnaA fragment 117-391 (linker domain II and AAA+ ATPase domain III) (domain or fragment, Caulobacter crescentus, UniProt P0CAU4 117-391, looked up)
chain: AVAAEPIEIVLPVSTDAPTVVAPSAKSPRTQGLQERFTFETFVPGPANEFAHAVARRIANWADGHFNPVLFHGPYGFGKTHLLNALAWEAMRNAPEKRVVYLTAERFLSTFVRAVMDRQTAAFKEELRAADLLIIDDVHFIAGKQSTQEELFHTLTALVGEGGRVVFSADRPPSAMTEMDAHLRSHLSAGLVCGLEPADRNLRLGILERKIQTLGAAHGFEPSIRPEVMQFLADRFTDSVRELEGALNTLSARAGEGLSRMTLDEVQAILRPHLR
B2: DnaA fragment 143-490 (domains III+IV) (domain or fragment, Caulobacter crescentus, UniProt P0CAU4 143-490, looked up)
chain: SPRTQGLQERFTFETFVPGPANEFAHAVARRIANWADGHFNPVLFHGPYGFGKTHLLNALAWEAMRNAPEKRVVYLTAERFLSTFVRAVMDRQTAAFKEELRAADLLIIDDVHFIAGKQSTQEELFHTLTALVGEGGRVVFSADRPPSAMTEMDAHLRSHLSAGLVCGLEPADRNLRLGILERKIQTLGAAHGFEPSIRPEVMQFLADRFTDSVRELEGALNTLSARAGEGLSRMTLDEVQAILRPHLRSGEKRITIDDIQKATAEHYGMKQADLLSERRNRAVARPRQAAMWLAKQLTTRSLPDIGRRFGGRDHTTVLHAVRRIEALRAEDSALSHDLETLTRKLRG
B3: DnaA fragment 143-391 (AAA+ ATPase domain III) (domain or fragment, Caulobacter crescentus, UniProt P0CAU4 143-391, looked up)
chain: SPRTQGLQERFTFETFVPGPANEFAHAVARRIANWADGHFNPVLFHGPYGFGKTHLLNALAWEAMRNAPEKRVVYLTAERFLSTFVRAVMDRQTAAFKEELRAADLLIIDDVHFIAGKQSTQEELFHTLTALVGEGGRVVFSADRPPSAMTEMDAHLRSHLSAGLVCGLEPADRNLRLGILERKIQTLGAAHGFEPSIRPEVMQFLADRFTDSVRELEGALNTLSARAGEGLSRMTLDEVQAILRPHLR

Each binder was assayed against T1, Lon protease (Caulobacter crescentus) (assay: filtration-spin binding assay).

Binding result, binds:
B1
B2
B3
